Measurements reported in publication PMC9352680, “A comprehensive thermodynamic model for RNA binding by the Saccharomyces cerevisiae Pumilio protein PUF4”.

T1: PUF4 RNA-binding domain (Saccharomyces cerevisiae, UniProt P25339 537-888)
T1 sequence: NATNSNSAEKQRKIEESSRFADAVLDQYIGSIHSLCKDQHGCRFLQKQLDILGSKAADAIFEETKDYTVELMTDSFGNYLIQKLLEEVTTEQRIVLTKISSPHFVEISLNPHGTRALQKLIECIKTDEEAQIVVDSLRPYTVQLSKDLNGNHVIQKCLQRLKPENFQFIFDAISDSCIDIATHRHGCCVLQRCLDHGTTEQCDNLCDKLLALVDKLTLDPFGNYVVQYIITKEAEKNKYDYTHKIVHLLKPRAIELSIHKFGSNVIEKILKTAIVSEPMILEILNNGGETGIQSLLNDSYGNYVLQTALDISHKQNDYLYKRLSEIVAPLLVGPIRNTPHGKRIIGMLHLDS


Each binder was assayed against T1, PUF4 RNA-binding domain (assay: Mg; RNA-MaP; 20 mM Na-HEPES pH 7.4, 30 mM KOAc, 0.75 mM MgCl2, 0.1% Tween-20, 5% glycerol, 0.1 mg/mL BSA, 2 mM DTT; 25 C; 0.0125-409.6 nM protein). Settings: tags: N-His6-TEV cleaved; C-SNAP kept, Cy3B-labelled; label: tethered on chip by stalled RNA polymerase.

Binder | Kd [µM]
UCUCUUAAUAUAUAUACCUCUCUU (ssRNA) [Id_ii_S1_P3E.3_K3.2_C3.2_[C-2A]_[T-1A]_H3.2_A3.1_F3.1_T3.2_[T9C]_[A10C]] | 2.25
UCUCUUUUUAUAUAUAUAUCUCUU (ssRNA) [Id_ii_S1_P3E.3_K3.2_C3.2_[C-2T]_H3.2_A3.1_F3.1_T3.2] | 0.51
UCUCUUAGUAUAUAUAAAUCUCUU (ssRNA) [Id_ii_S1_P3E.3_K3.2_C3.2_[C-2A]_[T-1G]_H3.2_A3.1_F3.1_T3.2_[T9A]] | 0.877
UCUCUUCGUAUAUAUAAUUCUCUU (ssRNA) [Id_ii_S1_P3E.3_K3.2_C3.2_[T-1G]_H3.2_A3.1_F3.1_T3.2_[T9A]_[A10T]] | 0.675
UCUCUUAAUAUAUAUAAAUCUCUU (ssRNA) [Id_ii_S1_P3E.3_K3.2_C3.2_[C-2A]_[T-1A]_H3.2_A3.1_F3.1_T3.2_[T9A]] | 1.29
UCUCUUUUUAUAUAUAUCUCUCUU (ssRNA) [Id_ii_S1_P3E.3_K3.2_C3.2_[C-2T]_H3.2_A3.1_F3.1_T3.2_[A10C]] | 0.759
UCUCUUAGUAUAUAUAGCUCUCUU (ssRNA) [Id_ii_S1_P3E.3_K3.2_C3.2_[C-2A]_[T-1G]_H3.2_A3.1_F3.1_T3.2_[T9G]_[A10C]] | 0.494
UCUCUUCGUAUAUAUAAAUCUCUU (ssRNA) [Id_ii_S1_P3E.3_K3.2_C3.2_[T-1G]_H3.2_A3.1_F3.1_T3.2_[T9A]] | 0.653
UCUCUUUUUAUAUAUACGUCUCUU (ssRNA) [Id_ii_S1_P3E.3_K3.2_C3.2_[C-2T]_H3.2_A3.1_F3.1_T3.2_[T9C]_[A10G]] | 1.56
UCUCUUUAUAUAUAUAUUUCUCUU (ssRNA) [Id_ii_S1_P3E.3_K3.2_C3.2_[C-2T]_[T-1A]_H3.2_A3.1_F3.1_T3.2_[A10T]] | 0.329
UCUCUUAUUAUAUAUAGUUCUCUU (ssRNA) [Id_ii_S1_P3E.3_K3.2_C3.2_[C-2A]_H3.2_A3.1_F3.1_T3.2_[T9G]_[A10T]] | 0.544
UCUCUUAUUAUAUAUAGCUCUCUU (ssRNA) [Id_ii_S1_P3E.3_K3.2_C3.2_[C-2A]_H3.2_A3.1_F3.1_T3.2_[T9G]_[A10C]] | 1.31
UCUCUUUAUAUAUAUAUCUCUCUU (ssRNA) [Id_ii_S1_P3E.3_K3.2_C3.2_[C-2T]_[T-1A]_H3.2_A3.1_F3.1_T3.2_[A10C]] | 0.37
UCUCUUUAUAUAUAUAUGUCUCUU (ssRNA) [Id_ii_S1_P3E.3_K3.2_C3.2_[C-2T]_[T-1A]_H3.2_A3.1_F3.1_T3.2_[A10G]] | 0.427
UCUCUUUUUAUAUAUAUGUCUCUU (ssRNA) [Id_ii_S1_P3E.3_K3.2_C3.2_[C-2T]_H3.2_A3.1_F3.1_T3.2_[A10G]] | 1.06
UCUCUUUCUACAUUAUCUCUU (ssRNA) [Ib_S1_P4E.1_K4.1_C4.1_H4.1_[G2C]_A4.1_[T5C]_F4.1_T4.1] | 1.45
UCUCUUAGUAUAUAUAGUUCUCUU (ssRNA) [Id_ii_S1_P3E.3_K3.2_C3.2_[C-2A]_[T-1G]_H3.2_A3.1_F3.1_T3.2_[T9G]_[A10T]] | 0.156
UCUCUUAUUAUAUAUAAUUCUCUU (ssRNA) [Id_ii_S1_P3E.3_K3.2_C3.2_[C-2A]_H3.2_A3.1_F3.1_T3.2_[T9A]_[A10T]] | 0.814
UCUCUUAUUAUAUAUACGUCUCUU (ssRNA) [Id_ii_S1_P3E.3_K3.2_C3.2_[C-2A]_H3.2_A3.1_F3.1_T3.2_[T9C]_[A10G]] | 1.86
UCUCUUUUUAUAUAUAGCUCUCUU (ssRNA) [Id_ii_S1_P3E.3_K3.2_C3.2_[C-2T]_H3.2_A3.1_F3.1_T3.2_[T9G]_[A10C]] | 0.49
UCUCUUAAUAUAUAUACGUCUCUU (ssRNA) [Id_ii_S1_P3E.3_K3.2_C3.2_[C-2A]_[T-1A]_H3.2_A3.1_F3.1_T3.2_[T9C]_[A10G]] | 1.98

Binder | Kd [µM]
UCUCUUUAUAUAUAUAAUUCUCUU (ssRNA) [Id_ii_S1_P3E.3_K3.2_C3.2_[C-2T]_[T-1A]_H3.2_A3.1_F3.1_T3.2_[T9A]_[A10T]] | 0.642
UCUCUUUUUAUAUAUAGUUCUCUU (ssRNA) [Id_ii_S1_P3E.3_K3.2_C3.2_[C-2T]_H3.2_A3.1_F3.1_T3.2_[T9G]_[A10T]] | 0.272
UCUCUUUUUAUAUAUACAUCUCUU (ssRNA) [Id_ii_S1_P3E.3_K3.2_C3.2_[C-2T]_H3.2_A3.1_F3.1_T3.2_[T9C]] | 1.21
UCUCUUAUUAUAUAUACCUCUCUU (ssRNA) [Id_ii_S1_P3E.3_K3.2_C3.2_[C-2A]_H3.2_A3.1_F3.1_T3.2_[T9C]_[A10C]] | 2.29
UCUCUUAUUAUAUAUACAUCUCUU (ssRNA) [Id_ii_S1_P3E.3_K3.2_C3.2_[C-2A]_H3.2_A3.1_F3.1_T3.2_[T9C]] | 0.599
UCUCUUACUAUAUAUAAAUCUCUU (ssRNA) [Id_ii_S1_P3E.3_K3.2_C3.2_[C-2A]_[T-1C]_H3.2_A3.1_F3.1_T3.2_[T9A]] | 1.36
UCUCUUACUAUAUAUAUCUCUCUU (ssRNA) [Id_ii_S1_P3E.3_K3.2_C3.2_[C-2A]_[T-1C]_H3.2_A3.1_F3.1_T3.2_[A10C]] | 0.886
UCUCUUAGUAUAAUAUCUCUU (ssRNA) [Ib_S1_P4E.1_K4.1_C4.1_H4.1_[T1A]_A4.1_[T7A]_F4.1_T4.1] | 0.126
UCUCUUACUAUAUAUAUGUCUCUU (ssRNA) [Id_ii_S1_P3E.3_K3.2_C3.2_[C-2A]_[T-1C]_H3.2_A3.1_F3.1_T3.2_[A10G]] | 0.968
UCUCUUAGUAUAUAUAUUUCUCUU (ssRNA) [Id_ii_S1_P3E.3_K3.2_C3.2_[C-2A]_[T-1G]_H3.2_A3.1_F3.1_T3.2_[A10T]] | 0.452
UCUCUUAUUAUAUAUAUCUCUCUU (ssRNA) [Id_ii_S1_P3E.3_K3.2_C3.2_[C-2A]_H3.2_A3.1_F3.1_T3.2_[A10C]] | 0.993
UCUCUUAAUAUAUAUACUUCUCUU (ssRNA) [Id_ii_S1_P3E.3_K3.2_C3.2_[C-2A]_[T-1A]_H3.2_A3.1_F3.1_T3.2_[T9C]_[A10T]] | 0.344
UCUCUUAUUAUAUAUACUUCUCUU (ssRNA) [Id_ii_S1_P3E.3_K3.2_C3.2_[C-2A]_H3.2_A3.1_F3.1_T3.2_[T9C]_[A10T]] | 0.528
UCUCUUUAUAUAUAUACAUCUCUU (ssRNA) [Id_ii_S1_P3E.3_K3.2_C3.2_[C-2T]_[T-1A]_H3.2_A3.1_F3.1_T3.2_[T9C]] | 0.384
UCUCUUAGUAUAUAUAUCUCUCUU (ssRNA) [Id_ii_S1_P3E.3_K3.2_C3.2_[C-2A]_[T-1G]_H3.2_A3.1_F3.1_T3.2_[A10C]] | 0.652
UCUCUUAGUAUAUAUACCUCUCUU (ssRNA) [Id_ii_S1_P3E.3_K3.2_C3.2_[C-2A]_[T-1G]_H3.2_A3.1_F3.1_T3.2_[T9C]_[A10C]] | 0.954
UCUCUUUUUAUAUAUAAUUCUCUU (ssRNA) [Id_ii_S1_P3E.3_K3.2_C3.2_[C-2T]_H3.2_A3.1_F3.1_T3.2_[T9A]_[A10T]] | 0.968
UCUCUUAAUAUAUAUAUUUCUCUU (ssRNA) [Id_ii_S1_P3E.3_K3.2_C3.2_[C-2A]_[T-1A]_H3.2_A3.1_F3.1_T3.2_[A10T]] | 0.973
UCUCUUUUUAUAUAUACUUCUCUU (ssRNA) [Id_ii_S1_P3E.3_K3.2_C3.2_[C-2T]_H3.2_A3.1_F3.1_T3.2_[T9C]_[A10T]] | 0.708
UCUCUUUUUAUAUAUAUUUCUCUU (ssRNA) [Id_ii_S1_P3E.3_K3.2_C3.2_[C-2T]_H3.2_A3.1_F3.1_T3.2_[A10T]] | 0.457
UCUCUUCGUAUAAUAUCUCUU (ssRNA) [Ib_S1_P4E.1_K4.1_C4.1_H4.1_[T1C]_A4.1_[T7A]_F4.1_T4.1] | 0.131

Binder | Kd [µM]
UCUCUUAUUAUAUAUAUUUCUCUU (ssRNA) [Id_ii_S1_P3E.3_K3.2_C3.2_[C-2A]_H3.2_A3.1_F3.1_T3.2_[A10T]] | 0.383
UCUCUUUGUAUUUUAUCUCUU (ssRNA) [Ic_S1_P4E.1_K4.1_C4.1_H4.1_A4.1_[A6T]_F4.1_T4.1] | 0.00246
UCUCUUAAUAUAUAUACAUCUCUU (ssRNA) [Id_ii_S1_P3E.3_K3.2_C3.2_[C-2A]_[T-1A]_H3.2_A3.1_F3.1_T3.2_[T9C]] | 0.886
UCUCUUCGUAUAUAUACCUCUCUU (ssRNA) [Id_ii_S1_P3E.3_K3.2_C3.2_[T-1G]_H3.2_A3.1_F3.1_T3.2_[T9C]_[A10C]] | 1.71
UCUCUUUUUAUAUAUACCUCUCUU (ssRNA) [Id_ii_S1_P3E.3_K3.2_C3.2_[C-2T]_H3.2_A3.1_F3.1_T3.2_[T9C]_[A10C]] | 1.43
UCUCUUAUUAUAUAUAUAUCUCUU (ssRNA) [Id_ii_S1_P3E.3_K3.2_C3.2_[C-2A]_H3.2_A3.1_F3.1_T3.2] | 0.424
UCUCUUAGUAUUUUAUCUCUU (ssRNA) [Ib_S1_P4E.1_K4.1_C4.1_H4.1_[T1A]_A4.1_[A6T]_F4.1_T4.1] | 0.798
UCUCUUACUAUAUAUAGCUCUCUU (ssRNA) [Id_ii_S1_P3E.3_K3.2_C3.2_[C-2A]_[T-1C]_H3.2_A3.1_F3.1_T3.2_[T9G]_[A10C]] | 2.19
UCUCUUCGUAUAUAUAACUCUCUU (ssRNA) [Id_ii_S1_P3E.3_K3.2_C3.2_[T-1G]_H3.2_A3.1_F3.1_T3.2_[T9A]_[A10C]] | 0.629
UCUCUUCGUAUAUAUAGCUCUCUU (ssRNA) [Id_ii_S1_P3E.3_K3.2_C3.2_[T-1G]_H3.2_A3.1_F3.1_T3.2_[T9G]_[A10C]] | 0.419
UCUCUUAAUAUAUAUAGUUCUCUU (ssRNA) [Id_ii_S1_P3E.3_K3.2_C3.2_[C-2A]_[T-1A]_H3.2_A3.1_F3.1_T3.2_[T9G]_[A10T]] | 0.458
UCUCUUUUUAUAUAUAAGUCUCUU (ssRNA) [Id_ii_S1_P3E.3_K3.2_C3.2_[C-2T]_H3.2_A3.1_F3.1_T3.2_[T9A]_[A10G]] | 1.55
UCUCUUACUAUAUAUACUUCUCUU (ssRNA) [Id_ii_S1_P3E.3_K3.2_C3.2_[C-2A]_[T-1C]_H3.2_A3.1_F3.1_T3.2_[T9C]_[A10T]] | 0.918
UCUCUUAAUAUAUAUAUGUCUCUU (ssRNA) [Id_ii_S1_P3E.3_K3.2_C3.2_[C-2A]_[T-1A]_H3.2_A3.1_F3.1_T3.2_[A10G]] | 0.698
UCUCUUACUAUAUAUACCUCUCUU (ssRNA) [Id_ii_S1_P3E.3_K3.2_C3.2_[C-2A]_[T-1C]_H3.2_A3.1_F3.1_T3.2_[T9C]_[A10C]] | 0.848
UCUCUUACUAUAUAUACAUCUCUU (ssRNA) [Id_ii_S1_P3E.3_K3.2_C3.2_[C-2A]_[T-1C]_H3.2_A3.1_F3.1_T3.2_[T9C]] | 1.29
UCUCUUUUUACAUUAUCUCUU (ssRNA) [Ib_S1_P4E.1_K4.1_C4.1_H4.1_[G2T]_A4.1_[T5C]_F4.1_T4.1] | 0.914
UCUCUUCGUAUAUAUAUAUCUCUU (ssRNA) [Id_ii_S1_P3E.3_K3.2_C3.2_[T-1G]_H3.2_A3.1_F3.1_T3.2] | 0.488
UCUCUUAGUAUAUAUAUGUCUCUU (ssRNA) [Id_ii_S1_P3E.3_K3.2_C3.2_[C-2A]_[T-1G]_H3.2_A3.1_F3.1_T3.2_[A10G]] | 0.502
UCUCUUAGUAUGUUAUCUCUU (ssRNA) [Ib_S1_P4E.1_K4.1_C4.1_H4.1_[T1A]_A4.1_[A6G]_F4.1_T4.1] | 1.08
UCUCUUAAUAUAUAUAGCUCUCUU (ssRNA) [Id_ii_S1_P3E.3_K3.2_C3.2_[C-2A]_[T-1A]_H3.2_A3.1_F3.1_T3.2_[T9G]_[A10C]] | 0.633
